These results are taken from article doi:10.1101/354001.

What all share (assay): SEC + other: SDS-PAGE
Assay [1] deals with Δ(185-243) Glu34Lys apoA-I (globular domain, residues 1-184) (human).
Assay [2] addresses Δ(185-243) Leu159Arg apoA-I (globular domain, residues 1-184) (human).
The target in assay [3] is Δ(185-243) Phe71Tyr apoA-I (globular domain, residues 1-184) (human).
Assay [4] concerns the target Δ(185-243) WT apoA-I (globular domain, residues 1-184, of human apolipoprotein A-I) (human).

Regarding “Δ(185-243) Glu34Lys apoA-I (globular domain, residues 1-184) (domain or fragment)”, in assay [1], the stoichiometry N came out at 2. “Δ(185-243) Leu159Arg apoA-I (globular domain, residues 1-184) (domain or fragment)”: the stoichiometry N in assay [2] came out at 2. Consider “Δ(185-243) Phe71Tyr apoA-I (globular domain, residues 1-184) (domain or fragment)”, for which the stoichiometry N in assay [3] worked out at 2. Turning to “Δ(185-243) WT apoA-I (globular domain, residues 1-184, of human apolipoprotein A-I) (domain or fragment)”, in assay [4], the stoichiometry N was 2.
